From the nanobody polyreactivity screen of Harvey et al. (2022)

Assay: yeast display, Sf9 membrane polyspecificity reagent, FACS + sequencing; frameworks hold sequencing errors
How it was run: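 After 36–48 hours of galactose induction, yeast (Saccharomyces cerevisiae BJ5465) displaying a synthetic nanobody library were stained at 4 °C for 1 hour with 10% biotinylated, detergent-solubilized Sf9 membrane reagent. Streptavidin microbeads enriched the stained cells before FACS sorting into low and high (top ~1%) gates on anti-HA and streptavidin fluorescence. Each clone's polyreactivity label reflects its gate of origin.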

| Sequence | polyreactivity (PSR sort gate) |
| --- | --- |
| QVQLVESGGGLVQAGGSLRLSCAASGRTFGIYAMGWYRQAPGKERELVAAITWSGDSTYYADSVKGRFTISRDNAKNTVYLQMNSLKPEDTAVYYCAADYVGVTSVRYDYWGQGTQVTVSS | low polyreactivity |
| QVQLVESGGGLVQAGGSLRLSCAPSGITFQRYVMGWYRQAPGKERELVAAISFSGSSTYYADSVKGRFTISRDNAKNTVYLQMNSLKPEDTAVYYCAADGSVPKYVPYPRYYGYGYWGQGSQVTVSS | high polyreactivity |
| QVQLVESGGGLVQAGGSLRLICAASGSTFYSYTMGWYRPAPGKERELVARISSSGSTNYADSVKGRFTISRYNAKNTVYLQMNSLKPEDTAVYYCNKDWFYRGYDYWGQGTQVTVSS | high polyreactivity |
| QVQLVESGGGLVQAGGSLRLSCAASGRIFTLYAMGWYRQAPGKEREFVAAINRGGSTNYADSVKGRFTISRDNAKNTVYLQMNSLKPEDTAVYYCAAKTTSRFRTYSYDYWGQGTQVTVSS | high polyreactivity |
| QVQLVESGGGLVQAGGSLRLSCAASGFIFSLYAMGWYRQAPGTERELVAAISKRGGSTNYADSVKGRFTISRDNAKNTVYLQMNSLKPEDTAVYYCAKARPGFLYDHWGQGTQVTVSS | high polyreactivity |
| QVQLVESGGGLVQAGGSLRLICAASGTIFDIYAMGWYRQAPGKERELVAAISLSAGSTYYADSVKGRFTISRDNAKNTVYLQMNSLKPEDTAGYYFNADGWYGYWGQGTQVTVSS | low polyreactivity |
| QVQLVESGGGLVQAGGSLRLSCAASGSTFGVNAMGWYRPAPGKERELVAAITYSGGSTYYADSVKGRFTISRDNAKNTVYLQMNSLKPEDTAVYYCATTWYFVASWYVAIYDYWGQGTQVTVSS | low polyreactivity |
| QVQLQESGGGLVQAGGSLRLSCAATGSIYHLHIMCWYRKAPGKERESVAAISYGTSTYYADSVKGRFTICRDNAKNTVYLQMNSPKPDDTAVYYCAALFLVYKHHHYWGEGTQVTVSS | low polyreactivity |
| QVQLVESGGGLVQAGGSLRLSCAASGSTFYRYAMGWYRQAPGKERELVAAITARGGSTYYADSVKGRFTISRDNAKNTVYLQMNSLKPEDTAVYYCAADWLSTKNDYWGQGTQVTESS | low polyreactivity |
| QVQLVESGGGLVQAGGSLRLSCAASGSTLIRNDMGWYRQAPAKERELVAAINTRGTTTYYADSVKGRFTISRDNAKNTVYLQMNSLKPEDTAVYYCAAYAYSAYSPDGQRSRYYYWGQGTQVTVSS | high polyreactivity |
| QVQLVESGGGLVQAGGSLRLSCAASGSIFSGYTMGWYRQAPGKERELVAAITQRGTRTYYADSVKGRFTISRDNAKNTVYLQMNSLKPEDTAVYYCAADSVVVGSPGNDYWGQGTQVTVSS | high polyreactivity |
| QVQLVESGGGLDQAGGSLRLSCAASGSTFVYYAMGWYRQAPGKERELVAAITASGGGTYYADSVKGSFTISRDNAKNTVYLQMNSLKPEDTAVYYCAANDYWYSRGDNQFYYRGQGTQVTVSS | low polyreactivity |
| QVQLVESGGGLVQAGGSLRLSCAASGRIFKQYAMGWYRQAPGKERELVAAISWDGGSTYYADSVKGRFTISRDNAKNTVYLQMNSLKPEDTAVYDCNKDLYYAYDYWGQGTQVTVSS | low polyreactivity |
| QVQLVESGGGLVQAGGSLRLSCAASGIIFPYYAMGWYRQAPGKERELVAAISIDGSTNYAVSVKGRFTISRDNAKNTVYLQMNSLKPEDTAVYYCNTTAFSTYQVGFLYDYWGQGTQVTVSS | low polyreactivity |
| QVQLVESGGGLVQAGGSLRLSCAAPGIIFVDYTMGWYRQAPGKERELVAAIDWSGGSTYYADSVKGRFTISRDNAKNTVYLQMNSLKPEDTAVYYCAALKTTYIYSSDFDYWGQGTQVTVSS | low polyreactivity |
| QVQIVESGGGLVQAGGSLRLSCAASGSTFYSYAMGWYRQAPGKERELVAAIDWSGDNTNYADSVKGRFTISRDNAKNTVYLQMKSLKPEDTAVYYCAAVYSYYRLYAYPAYYYWGQGTQVTVSS | low polyreactivity |
| KVQVVESGGGFVQAGGSLRLSCAASGSTFVINAMGCYRQAPGKERELVAAITWGGGRTYYADSVKGRFTISRDNEKNTVYFQMNSLKPEDTAVYYCAAVGSGWKGDYWGQGTQVNVSS | low polyreactivity |
| QVQLVESGGGLVQAGGSLRLSCAASGRIFWGNGMGWYRQAPGKEREFVAAISKSGGSTYYADSVKGRFTISRDNAKNTVYLQMNSLKPEDTAVYYCAARAPYSYSGYGYWGQGTQVTVSS | high polyreactivity |
| QVQLVESGGGLVQAGGRLRLSCAASGITFWSNALGWYRQAPGKERELVAAMTSGGNTNYADSVKGRFTISRDNAKNTVYLQMNSLKPEDTAVYYCATKQLLRRRQGYYWVGSKHDYWGQGTQVTVSS | high polyreactivity |
| QVQLVESGGGLGQAGGSLRLSCAASGRIVSNAMGWYRQAPGKERELVAAISRRGGSTYYADSVKGRFTISRENAKNTVYLQMNSLIPEDTAVYSCASRPFFTYRWYDYWGQGTQVTVSS | high polyreactivity |
| QVQLVESGGGLVQAGGSLRLSCAASGIFSYYAMGWYRQAPGKERELVAAISSSGGSTYYADSVKGRFTISRDNAKNTVYLQMNSLKPEDTAVYYCNVRNYYNDYYYWGQGTQVTVSS | high polyreactivity |
| QVQLVESGGGLVQAGGSLRLSCAASGSIFRRYDMGWYRQAPGTERELVAAISSSGGSTYYADSVKGRFTISRDNAKNTVYLQMNILKPEDTAVYYCNTASNRYPGWRAEFDYWGQGTQVTVSS | low polyreactivity |

| Sequence | polyreactivity (PSR sort gate) |
| --- | --- |
| QVQLVESGGGLVQAGGSLPLSCAASGSIFYSNAMGWYRQAPGKERELVARISRSGGSTYYADSVKGRFTISRDNAKNTVYLQMNSLKPEDTAVYYCAKTFTRSWGLGGSWGQGTQVTVSS | low polyreactivity |
| QVQLVESGGGLVQAGGSLRLSCAASGRIFSSYAMGWYRQAPGKERELVAANSRSGARTYYADSVKGRFTISRDNAKNTVYLQMNSLKPEDTAVYYCAAVTVAGYDYWGQGTQVTVSS | high polyreactivity |
| QVQLVESGGGLVQAGGSLRLSCAASGNIFTYYAMGWYRQAPGKERELVAAIRWRSGSTYYADSVKGRFTISRDNAKNTVYLQMNSLKPEDTAVYYCAADGTPYEYDYWGHGTQVTVSS | low polyreactivity |
| QVQLVESGGGLVQAGGSLRLICAASGIIFQYYAMGWYRQAPGKERELVAAISWSGGSTYYADSVKGRFTISRDNAKNTVYLQMNSVKPEETAVYYCNAVYYSRIVGVRIYDYWGQGTQVTVSS | low polyreactivity |
| QVQLVESGGGLVQAGGSLRLSCAASGYTFLDYAMGWYRQAPGKERELFAAINSGGSTYYADSVKGRFTISRDNAKNSVYFQMNSLNPEDTAVSYCAREDYVSYRLLYYLFDYWGQGTQVTVSS | low polyreactivity |
| QVQLVESGGGLVQAGGSLRLSCAASGFTIAYYAMGWYRQAPGKERELVAAITTSGSTYYADSVKGRFTISRDNAQNTVYLQMNSLKPEDTAVYYCAVSIWGWFASGFDYWGQGTQVTVSS | high polyreactivity |
| QDQLVESGGGLVQAGGSLRLSCAASGRIISLYAMGWYRQAPVKERDLVAAISRRSGNTNYADSVKGRFTISRDNAKNTVYLQMNSLKPEDTAVYYCAARPGAISSTSPYDYWGQGTQVTVSS | high polyreactivity |
| QVQLVESGGGLVQAGGSLRLSCAASGSIFGYYAMGWYRQAPGKERELVAVIRRSSGSTYYADSVKGRITISRDNAKKTVYLQMNSLKPEDTAVFYCASRRYEPIIWHSMDYWGQGTQVTVSS | low polyreactivity |
| QVQLVESGGGLVQAGGSLRLSCAASGRTFQYYAMGWYIQGPGKERELVAAISWSGGSTYYADSVKGRFTISRDNAKNTVYLQMNSLKPEDTAVYFCAAVVGRNRTRSYGYWGQGTQVTVSS | high polyreactivity |
| QVQLVESGGGLVQAGGSLRLSCAASGRIFRYNAMGWYRQAPGKERELVAAISYRTGSTHYADSVKGRFTISRDNAKNTVYLQMNILKPEDTAVYYCAYVPGYCYWGQGTQVTVSS | low polyreactivity |
| QFQLVESGGGLVQAGGSLGLSCAASGRSFAQYTMGWYRQAPGKERELVAAISWSGTSTYYADSVKGRFTISRDNAKNTVSLQMNSLKPEDTAVYYCAALGRYSVEYGYWGQGTQVTVSS | high polyreactivity |
| QVQLVESGGGLVQAGGSLRLSCAASGSTFRWYAMGWYRQAPGKERELVASITRGGGSTYYADSVKGRFTISRDNAKNTVYLQMNSLKPEDTAVYYCAKRSLWSYYEGYYYWGQGTQVTVSS | high polyreactivity |
| QVQLVESGGGLVQAGGTLRLSCAACGRTFPINAMAWYRQAPGKERELVASIRWTDGTTYYADSVKGRFTISRDNAKNTVYLQMNSLKPEDTAVYYCAADAEGSASKYDYWGQGTQVTVSS | low polyreactivity |
| QVQLVESGGGLVQAGGSLRLSCAASGRTFRRNAMGWYRQAPGKERELVAAIRWSSGSTYYADSVNGRFTISRDNAKNTVYLQMNSLKPEDTAVYYCAADGDWYGYIWQSDDGYDSWGQGTQVTVSS | low polyreactivity |
| QVQLVESGGGLVQAGGSLRLSCAASGRTYDQYVMGWYRQAPGKERELVAAITSGGSTYYADSVKGRFTISRDNAKNTVYLLMNSLKPEDTAVYYCNARTSVLHDYWGQGTQVTVSS | low polyreactivity |
| QVQLVESGGGLVQAGGSLRLSCAASGSIFGFNALGWYRQAPGKERELVAAINNGGSTNYADSVKGRFTISRDNATNTVYLQMNSLKPEDTAVYYCAARLNYIRRGYWGQGTQVTVSS | high polyreactivity |
| QVQLVESGGGLVQAGGSLRLSCAASGRIFTWYAMGWYRQAPGKERELVAAISWSGGRTYYADSVKGRFTISRDYSKNTVYLQMNSLKPEVTAVYYCAAREPGRTLDYLGQGTQVTVSS | high polyreactivity |
| QVQLVESGGGLVQAGGSLRLSCAASGSTFRYYDMGWYRQAPGKERELVAVISKSGARTYYADSVKGRFTISRDNAKNTVYLQMNSLKPEDTAVYYCIAVFKLDSQYAMGYWGQGTQLTVSS | high polyreactivity |
| QVQLVESGGGLVQAGGSLRLSCAASGSIIQGYAMGWYRQEPGKERELVAAITGDGTTNYADSVKGRFTISRDNAKNNVYLQMNSLKPEDTAVYYCSATGLFNKFHGYGYLGQGTQVTVSS | low polyreactivity |
| QVQLVESGGGLVQAGGSLRLSCAASGRIFGRNTMGWYRQAPGKEREFVAAITWSGGSTYYADSVKGRFTISRDNAKNTVYLQMNSLKPEDTAVYYCAAPSYYRYDYWGQGTQVTVSS | high polyreactivity |
| QVQLVESGGGLVQAGGSLRLSCAASGLIFRWYAMGWYRQAPGKEREMVAAITSGGTTNYADSVTGRFTISRDNAKNTVYFQMNSLKPEHSAVYSCNAIVLSYSRYDYWGQGTQVTVSS | high polyreactivity |
